# Assay results as given in paper PMC3802530.
# Columns and labels:
# [1] = molecular target: K48-linked di-ubiquitin (K48-Ub2) (Homo sapiens) (UniProt P0CG47); conditions: cited from earlier work
# [2] = molecular target: K63-linked di-ubiquitin (K63-Ub2) (Homo sapiens) (UniProt P0CG47); conditions: cited from earlier work
# monoUb (Homo sapiens) = monoUb (Homo sapiens) (UniProt P0CG47); conditions: cited from earlier work
# K11-linked di-ubiquitin [3] = molecular target: K11-linked di-ubiquitin (UniProt P0CG48); experiment: 15N T1 relaxation
# K11-linked di-ubiquitin [4] = molecular target: K11-linked di-ubiquitin (UniProt P0CG48); experiment: NMR titration
# hHR23a UBA2 UBA2, sequence (P54725 315-361): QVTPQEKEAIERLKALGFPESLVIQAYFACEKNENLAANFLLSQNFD
# Ub-associated domain (UBA) of Ubiquilin-1, sequence (Q9UMX0 546-586): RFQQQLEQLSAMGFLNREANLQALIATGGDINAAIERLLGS
stoichiometry N (UBA molecules per K11-Ub2) (K11-linked di-ubiquitin [3]),"Kd, site on the distal Ub (two independent sites) (K11-linked di-ubiquitin [4])",stoichiometry N (UQ1-UBA:K11-Ub2) (K11-linked di-ubiquitin [4]),Substance,Kd [1],Kd [2],Kd (monoUb (Homo sapiens))
,,,hHR23a UBA2 UBA2 (from UniProt P54725),18 µM,> 200 µM,400 µM
2,2.9 µM,2,Ub-associated domain (UBA) of Ubiquilin-1 (from UniProt Q9UMX0 546-586) (domain or fragment),,,
